Test results taken from FireProtDB (doi:10.1021/bi002752b).
Several values for one entry are separate records, joined by “and”; a condition that tells them apart may be missing. Equal entries are not always repeated.

Details: Pseudomonas putida, 25 °C, GdnHCl, phosphate 50 mM, reversible: yes, whole UniProt chain shown

B1: 2-hydroxymuconate tautomerase wild type, Q01468 (protein)
chain: MPIAQIHILEGRSDEQKETLIREVSEAISRSLDAPLTSVRVIITEMAKGHFGIGGELASKVRR
denaturant midpoint (higher = more stable) (pH 6, CD): 1.9 M and 2.1 M and 2.3 M
denaturant midpoint (higher = more stable) (pH 6, activity): 1.4 M and 1.7 M
denaturant midpoint (higher = more stable) (pH 7.4, CD): 2.4 M and 2.7 M and 2.9 M
denaturant midpoint (higher = more stable) (pH 7.4, activity): 2.2 M and 2.5 M and 2.9 M
denaturant midpoint (higher = more stable) (pH 8.5, CD): 2.5 M and 2.8 M and 3 M
denaturant midpoint (higher = more stable) (pH 8.5, activity): 2.5 M and 2.7 M and 2.9 M
